Measured values reported in the nanobody polyreactivity screen of Harvey et al. (2022).

Assay: yeast display, Sf9 membrane polyspecificity reagent, FACS + sequencing; frameworks hold sequencing errors
In short: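 Nanobodies from a synthetic yeast display library (Saccharomyces cerevisiae BJ5465), induced 36–48 hours with galactose, were stained 1 hour at 4 °C with 10% biotinylated, detergent-solubilized Sf9 membrane reagent, enriched on streptavidin microbeads, then FACS-sorted. Anti-HA (expression) and streptavidin (reagent binding) fluorescence set low and high (top ~1%) gates. Polyreactivity labels come from the gate of origin. Genes were colony-PCR amplified, MiSeq 2 × 250 sequenced and filtered by CDR length.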
With “QVQLVESGGGLVQAGGSLRLSCAASGLTFRLNAMGWYRHAPGKERELVAAITRGGRTNYADSVKGRFTISRDNAKNTVYLQMNSLKPEDTAVYYCAARYVERHTDYYYWGQGTQVTVSS” the “polyreactivity (PSR sort gate)” value was “low polyreactivity”. In the case of “QVQLVESGGGLVHAGGSLRLSCAASGITLVRYAMGWYRQAPGKERELVAAISSSGGSTYYADSVKGRFTISRDNAKNTVYLQMNSLKPEDTAVYYCNAYVHSRRVEFNYWGQGTQVTVSS”, the “polyreactivity (PSR sort gate)” value is reported as “high polyreactivity”. In the case of “QVQLVESGGGLVQAGGSLRLSCAASGSIYRDYTMGWYRQAPGKERELVAISWSSGGTNYADSVKGRFTISRDNAKNTVYLQMNSLKPEDTAVYYCAADRSTGLGDDDYWGQGTQVTVSS”, the “polyreactivity (PSR sort gate)” value is reported as “low polyreactivity”. With “QVQIVESGGGLVQAGGSLRLSCAASGRIFDYYAMGWYRQAPGKERELVADITSGGSTYYADSVKGRFTISRDNAKNTVYLQMNSLKPEDTAVYYCNADGPGSYIWYYFVYTTPEYDYWGQGTQVTVSS” the “polyreactivity (PSR sort gate)” value was “low polyreactivity”. With “QVQLVESGGGLVQAGGSLRLSCAASGSIFNYYTMGWYRQAPGKERELVAAITWSGGRTYYADSVKGRFTISRDNAKNTVYLQMNSLKPEDTAVYYCNAVAYKPGGGDDFESWGQGTQLTVSS” the “polyreactivity (PSR sort gate)” value was “high polyreactivity”. In the case of “QVQLVESGGGLVQAGGSRRLSCAASGRTSTYYAMGWYRQAPGKERELVAVITRGGSTYYADSVKGRFTISRDNAKNTVYLQMNSLKPEDTAVSYCNADGRVQRKYDYWGQGTQVTVSS”, the “polyreactivity (PSR sort gate)” value is reported as “high polyreactivity”. With “QVQLVESGGGLVQAGGSLRLSCAASGSTFYQYVMGWYRQAPGKERELVAAISGSGGSTYYADSVKGRFTISRDNAKNTVYLQMNSLKPEDTAVYYCAADNYFDWYWLFFEYDYWGQGTQVTVSS” the “polyreactivity (PSR sort gate)” value was “high polyreactivity”. For “QVQLVESGGGLVQAGGSLRLSCAASGRTFTRYAMGWYRQAPGKERELVAAISVRAGITYYADSVKGRFTISRDNAKNTVYLQMNSLKPEDTAVYYCAAKDGRSYYDRTPMVYFGQGTQVTVSS”, the “polyreactivity (PSR sort gate)” value was “low polyreactivity”. With “QVQLVESGAGLVQAGGSLRLSCAASGRTFPYYVMGWYRQAPGKERELVAAIRRTGGSTYYADSVKGRFTISRDNAKNTVYLQMNSLKPEDTAVYYCTQRHSILYEGGYDYWGQGTQVTVSS” the “polyreactivity (PSR sort gate)” value was “low polyreactivity”. For “QVQLVESGGGLVQAGGSLRLSCAASGRIFFTNAMGWYRQAPGKERELVAAISKYGARTYYADSVKGRFTISRDKAKNTVYLQMNSLKPEDTAVYYCAADVSVSGYYYWGQGTQVTVSS”, the “polyreactivity (PSR sort gate)” value was “high polyreactivity”. For “QVQLVESGGGLVQAGGRLRLSCAASGTIFYWNAMVWYRQATGKERELVAAINSGDSTNYADSVKGRFTISRDNAKNTVYFQMYSLKPEDTAVYYCAASIYAALNGGPGYDYWGQGTQVTVSS”, the “polyreactivity (PSR sort gate)” value was “low polyreactivity”. With “QVQLVESGGGLVQAGGSLRLSCAASGLIFYDNLGWYRQAPGKDRELVAAISSSGGSTSYADSVKGRFTISRDNAKNTVYLPMNSLKPEDTAVYYCAAKWSHVRDGPKYDYWGQGTQVTVSS” the “polyreactivity (PSR sort gate)” value was “low polyreactivity”. With “QVQLVESGGGLVQAGGRLRISCAASGRIFPYNAMGWYRQAPGKERELVAAISFGGGRTYYADSVKGRFTISRDNAKNTVYLQMNSMKPEDTAVYYCNTASPQDIVFRVFYGGDYWGQGTQVTVSS” the “polyreactivity (PSR sort gate)” value was “low polyreactivity”. In the case of “QVQLVESGGGLVQAGGSLRLSCAASGRTFLVYAMGWYRQAPGKERELVAAITSGGDTYADSVKGRFTISRDNAKNTVYLQMNSLKPEDTAVYYCAVQPDYFIVLWEYDYWGQGTQVTVSS”, the “polyreactivity (PSR sort gate)” value is reported as “high polyreactivity”. With “QVQLVESGGGLVQAGGSLRLSCAASGSTINQYAMGWYRQAPGKERELVAAITRRGGSTYYADSVKGRFTISRDNAKNTVYLQMNSLKPEDTAVYYCAAAYPYTTVSYDYWGQGTQVTVSS” the “polyreactivity (PSR sort gate)” value was “high polyreactivity”. With “QVQLVESGGGLVQAGGSLRLSCAASGLIFRRYAMGWYRQAPGKERELVAVISSGGRTYYADSVKGRFTISRDNAKNTVFLQMNSLKPEDTAVYYCAARTRSYWGTYGSYHYDYWGQGTQVTVSS” the “polyreactivity (PSR sort gate)” value was “high polyreactivity”. In the case of “QVHLVESGGGLVQAGGSLRLSCAASGFTFRWYAMGGDRQAPGKERALVAAIDSTDITNYADSVKGRFTISRDNAKNTVYLQMNSLKPEDTAVYYCAAELYPALYPFRISGTYGYWGQGTLVTVSS”, the “polyreactivity (PSR sort gate)” value is reported as “high polyreactivity”. In the case of “QVQLVESGGGLVQAGGSLRLSCAASGFIFVRYAMGWYRQAPGKERELVAAISSGGSTQYADSVKGRFTISRDNAKNTVDLQMNSLKPEDTPVYYCAAAATPGRGGDYWGQGTQVTVSS”, the “polyreactivity (PSR sort gate)” value is reported as “high polyreactivity”. For “QVQLVESGGGLVQAGGSLRLSCAASGRTFLIYAMGWYRQAPGKERELVAAITNAVDSTYYADSVKGRFTISRDNAKNTVYLQMNSLKPEDTAVYYCNADTVVEWYSPSREYDYWGQGTQVTVSS”, the “polyreactivity (PSR sort gate)” value was “low polyreactivity”. With “QVQLVESCGGLVQAGGSLRLSCAASGSTFTVNAMGWNRQAPVKERELVDAITQSRGSTSYADSVKGRFTISRDNAKNTVYVQMNSLKPEDTAVYYCNAQRGVRSRKSYRRQFDYWGHGTQVTVSS” the “polyreactivity (PSR sort gate)” value was “low polyreactivity”. For “QVQLVESGGGLVQAGGSLRLSCAASGSIFDYNGMGWYRQAPGKERELVATITLSTARTYYADSVKGRFTISRDNAKNTVYLQMNSLKPEDTAVYYCATRYPKFRRRNYWGQGTQVTVSS”, the “polyreactivity (PSR sort gate)” value was “high polyreactivity”. In the case of “QVQLQESGGGLVQEGGSLRLSCAASGNISPPADMGWYRPAPGKERELVASIGTGGTTNYADSVKGRFTISRDNAKNTVYLQMNSLKPEDTAVYYCNVRYRSAGSRYGYWGQGTQVTVSS”, the “polyreactivity (PSR sort gate)” value is reported as “low polyreactivity”. With “QVQLVETGGGLVQAGGSLRLSCAASGFIQSGYAMGWYRQAPGKERELVATITWRDGSTYYADSVKGRYTISRDNAKNTVYLQKNSLKPEDTEVYYCAVAAYSRRSPYYHYNYWGQGTQVTVSS” the “polyreactivity (PSR sort gate)” value was “high polyreactivity”. In the case of “QVQLVESGGGLFQAGGSLRLSCAASGRIFWNYAMGWYRQAPGKERELVASINWSGGSTYYADSVKGRFTISRDNAKNTVYLQMNSLKPEDTAVYYCNKDGRVYLDHDYWGQGTQVTVSS”, the “polyreactivity (PSR sort gate)” value is reported as “low polyreactivity”. With “QVQFVESGGGLVQAGGSLRVSCAASGSTFQGYAMGWSRQAPGKERELVAAISRSGGRTYYADSVKGRFTISRDNAKNTVYLQMNSLKPEDTAVYYCAAEGHELTEGDSWGQGTQVTVSS” the “polyreactivity (PSR sort gate)” value was “low polyreactivity”. With “QDQLVESGGGLVQAGGSLRLSCAASGRIFTRYAMGWYRQAPGKEREFVAAISVRGGTTYYADSVKGRFTISRDNAKNTVYLQMNSLKPEDSAVYYCAARKISKYDYWGQGTQVTVSS” the “polyreactivity (PSR sort gate)” value was “high polyreactivity”. In the case of “QVQLVESGGGLVQAGGSLRLSCAASGFTFAVYDMGWYRQAPGKERELVASITGDSTNYADSVKGRFTISRDNAKNTVYLQMNSLKPEDTAVYYCAAEYVPYYEYESWGQGTQVTVSS”, the “polyreactivity (PSR sort gate)” value is reported as “low polyreactivity”. In the case of “QVQLVESGGGLVQAGGSLRLSCAASGSTFGRYAMGWYRQARGKERELVAAISYGDGSTYYADSVKGRFTISRDYAKNTVYLQINSLIPEDTAVYYCATETETYSCWDPVWADDYDYWGQGTQVTVSS”, the “polyreactivity (PSR sort gate)” value is reported as “low polyreactivity”. With “QVQLVESGGGLVQAGGSLPLSCAASGRIFYFNAMGWYRPAPGKEREFVASINSIGDSTYYADSVKGRFTISRDNAKKTVYLQMHSLKPEDTAVYYCNADHGVINYRLDYWGQGTQVTVSS” the “polyreactivity (PSR sort gate)” value was “low polyreactivity”. In the case of “QVQLVESGGGLVQAGGSLRLSCAASGYIFYNYAMGWYRQAPGKERELVAAISRRGGSTYYADSVKGRFTISRDNAKNTVYLEMNSLKPEDTAVYYCAAKQYGWNLYGYWGQGTQVTVSS”, the “polyreactivity (PSR sort gate)” value is reported as “high polyreactivity”. With “QVQLVESGGGLVQAGGSLRLSCAATGSIFVLYAMGWYRQAPGKERALVAAISKSTGSTYYADSVKGRFTISRDNAKNTVYLQMNSLKPEDTAVYYCAARGRQYRYYDLDYWGQGTQVTVSS” the “polyreactivity (PSR sort gate)” value was “low polyreactivity”. In the case of “QVQLVKSGGGLVQAGGSLRLSCAASGFTFFVYAMGWYRPAPGKERELVAAITSSGGSTYYADSVKGRFTISRDNAKNTVYLQMNSLKPEDTAVYYCAADRYSYLGYPYEYEYWGQGTQGTVSS”, the “polyreactivity (PSR sort gate)” value is reported as “low polyreactivity”. In the case of “QVQLVESGGGLVQAGGSLRLSSAASGSTFIRYAMGWYRQAPGKERELVAAISTSGGSTYYADSVKGRFTISRDNAKNTVYLQMNSLKPEDTAVYYCNAVSRSYRYAGVPGFHYDYWGQGTQVTVSS”, the “polyreactivity (PSR sort gate)” value is reported as “high polyreactivity”. With “QVQLVDSGGGLVQAGGSLRLSCAASGYTFDWYNRGWYRQAPGKERELVAAISASGVRTYYADSVKGRFTISRDNAKNTVYFQMNSLKPEDTAVYYCNRVYSTSRITQYEFDYWGQGTQVTVSS” the “polyreactivity (PSR sort gate)” value was “low polyreactivity”. In the case of “QVQLEESGGGLVQAGGSLRLSCAASGAIFDGYGMGGYSQAPGQERELVAAIRWGDGITYYADSVKGRFTISRDNAKTTVYLQMNRLKPDDTAVYYCAAVQHGHEPRVQASYDYWGQGTQVTVSS”, the “polyreactivity (PSR sort gate)” value is reported as “low polyreactivity”. In the case of “QVQLLESWGGLVQAGGSLRLSCAASGSIFSYYAMGWYRQAPGKERELVATISSGDSTYYADTVKGRFTISRDNAKNTVYLQMHSLNPEDTEVYYCARKPRIRYYPAPYDYWGQGTQVTVSS”, the “polyreactivity (PSR sort gate)” value is reported as “low polyreactivity”. For “QVQLVESGGGLVQAGGSLRLSCAASGSTFYIYAMGWYRQAPGKEREMVARISGSGGSTYYADSVKGRFTISRDNAKNTVYLQMNSLKPEDTAVYYCAADDIYKYYQYYAVPYYRYDYWGQGTQVTVSS”, the “polyreactivity (PSR sort gate)” value was “low polyreactivity”. In the case of “QVQLVESGGGLVQAGGSLRLSCAASGRIFGVNVMGWYRQAPGKERELVAGINSSGGSTYYADSVKGRFTISRDNAKNTVYLQMNSLKPEDTAVYYCDVRSIWRYGYWGQGTQVTVSS”, the “polyreactivity (PSR sort gate)” value is reported as “high polyreactivity”. In the case of “QVQLVESGGGLVQAGGSLRLSCAASGSTLVDYAMGWYRQAPGKERQLVAAITSGGSTNYADSVMGRFTISRDNAKKTVYLQMNSLKPEDTAVYYCAAEWQRGLQAEYYYWGQGTKVTVSS”, the “polyreactivity (PSR sort gate)” value is reported as “low polyreactivity”. With “QVQLVESGGGLVQAGGSLRLSCAASGRIFSKNAMGWYRQAPGKERELVAAIDSSGDSTNYADSVKGRFTISRDNAKNTVYLQMNSLKTEDTAVYYCAATLGYRWSGFEYWGLGTQVTVSS” the “polyreactivity (PSR sort gate)” value was “high polyreactivity”.
